For one protein, Km results are on record in PMC8177754.

Substrate in the series: Nc1nc2c(ncn2[C@@H]2O[C@@H]3COP(=O)(O)O[C@H]4[C@@H](O)[C@H](n5cnc6c(N)ncnc65)O[C@@H]4COP(=O)(O)O[C@H]3[C@H]2O)c(=O)[nH]1
The series can be described thus: purified protein. Type of series: biochemical, Shewanella oneidensis. The settings on record: pH 8.0.

By Km is commonly meant the concentration of substrate that gives half-maximal velocity.

B1: (Shewanella oneidensis MR-1) (protein)
chain: MNAFLPHDFKVYMDVRHALLAVATALDFVGVDDLHHGHRVAYMAYECASVLGWPDEKKQFAYFAGLIHDCGVSSSEEHLRLLKLMQPEDAHCHSKRGYEALLECPILDVFAPIVLYHHTPWLELQSHDLSVFERDIAALIFLADRTDFLRARYTHGCHEELITLHESMVAENLLAHCGTLFEPEMVNAMCQLVKKDGFWYNMDATHIELLGLEFKANHFYDKELDIGGVKQLARFLARIVDAKSPFTFHHSEKVALLAKLVAKDCGISDTDAELLYVAGLLHDVGKLKTPDLLLHKEGKLTKEEYSIVKRHTVDTEHTLHRFFPKSVIGEWASNHHERLDGSGYPFSKRQEQLDLPSRILAVVDVFQALTQKRPYRGSLSLSEIYDIMQPMVDKGQLDAGVYSILLADIDNFYHLSTQEFQT
Take B1: the Km turned out to be 119 ± 60 µM.
